# From article doi:10.64898/2025.12.30.697126 (bioRxiv, 2025)
# Target: single-chain H2B-H2A.Z (human)
# Assay: crystal structure
binder,measurement,value
SEDAQSQSQADEEEEDDDFGVEYLLARDEE [Peptide SRCAP_(531-560)],binding result,binds
